Measurements reported in patent US20160213766A1 (VENTRIA BIOSCIENCE, published 2016).

Biological target: the molecule itself
Assay: Western blot under non-reducing, non-heated conditions; self-association

B1: rice-derived CTB.OspA fusion protein (other)
chain: TPQNITDLCAEYHNTQIHTLNDKIFSYTESLAGKREMAIITFKNGATFQVEVPGSQHIDSQKKAIERMKDTLRIAYLTEAKVEKLCVWNNKTPHAIAAISMANPGPGPGCKQNVSSLDEKNSVSVDLPGEMKVLVSKEKNKDGKYDLIATVDKLELKGTSDKNNGSGVLEGVKADKSKVKLTISDDLGQTTLEVFKEDGKTLVSKKVTSKDKSSTEEKFNEKGEVSEKIITRADGTRLEYTGIKSDGSGKAKEVLKGYVLEGTLTAEKTTLVVKEGTVTLSKNIAKSGEVSVELNDADSSAATKKTAAWNSGTSTLTITVNSKKTKDLVFTKENTITVQQYDSAGTKLEGSAVEITKLDEIKNALK
notes: also called OspA-CTB fusion protein; rice CTB.OspA fusion protein
Q: Does B1 bind?
A: binds
